Key:
Dysf. CD8+ T cells = experiment: reprogramming treatment of Dysf. (chronic TCR plus TGFβ1) human CD8+ T cells; format: cell-based; conditions: sorted most dysfunctional subset, added to RepSox
Method: On day 7, viable CD8+ T cells were FACS-purified using the Sony MA900 cell sorter. Purified CD8+ T cells were then continuously stimulated in plates coated with anti-CD3 only (5 ug/ml). Media was replenished every 2-3 days, and cells were incubated at 37 C and 5% CO2 throughout the duration of the experiment. Human TGFβ1 (5 ng/ml, Peprotech) was added to the media starting on day 7. Treatment with RepSox (25 μM) and SB4 (10 μM) (MedChemExpress LLC) or vehicle control (DMSO, ThermoFisher) were added to the media starting on day 14 or 21. Vitamin C (100 μM, MedChemExpress LLC) was added to the media starting on day 21. For the acute TCR stimulation condition, anti-CD3 was no longer added to the media starting on day 7. For recovery experiments in FIG. 16 and FIGS. 22 and 26, CD8+ T cells were rested from TCR stimulation and TGFβ1 starting on day 28 for 7-14 days in T cell media containing recombinant human IL-15 only (10 ng/ml).
On days 7, 14, 21, and 28 (and day 35 and 42 for recovery experiments), human CBMCs were stimulated with PMA/Ionomycin (Cell Stimulation Cocktail plus protein transport inhibitors, eBioscience) for 3 hours at 37° C., 5% CO2. Incubation was followed immediately by antibody intracellular staining for flow cytometry.
Human CBMCs from ex vivo stimulation experiments (acute or chronic TCR, and chronic TCR+TGFβ1) were labeled with 5(6)-Carboxyfluorescein diacetate N-succinimidyl ester (CFSE) (1 μM, Sigma) by staining in PBS for 7 minutes at room temperature, followed by quenching with 20% FBS. Proliferation was tracked on days 35 and 42 by assessing CFSE fluorescence via flow cytometry. Each peak of CFSE fluorescence signal represents one cell division cycle.

human CD8+ T cells [1] = experiment: whole-genome bisulfite sequencing of human CD8+ T cells; format: cell-based; conditions: combined with RepSox
Method: Human CD8+ T cells were sorted on days 0 (naïve), 7, and 28, and genomic DNA was extracted and bisulfite-treated to convert unmethylated cytosine to uracil residues using the EZ DNA Methylation-Direct Kit (Zymo). DNA libraries were prepared using Swift Accel-NGS® D Methyl-Seq DNA Library Kit according to the manufacturer's protocol. The libraries were purified by the AMPureXP Beads followed by QC using Qubit method, and the purified DNA was captured on an Illumina flow cell for cluster generation. Libraries were sequenced on the NovaSeq-S2 platform following the manufacturer's protocols. Sequencing data were aligned to the Hg38 genome using BSMAP. Adapter were trimmed from FASTQ sequences (trimglore) and mapped to the hg38 genome using the BSMAP v. 2.74 software. CpGs were extracted by the methratio.py in the BSMAP package. Differential analysis of CpG methylation among the datasets was determined with a Bayesian hierarchical model to detect regional methylation differences with at least three CpG site. Differentially methylated regions (DMRs) were identified using Bioconductor package DSS and custom R scripts with a threshold of 30% change in methylation ratio and P-value <0.01 with at least 10 reads per CpG site as a cutoff.

P14 CD8 T cells = experiment: in-vitro co-culture of P14 CD8 T cells with CT2A-gp33 tumor cells (Example 1); format: cell-based, mouse; conditions: P14 cells
Source text: To study their epigenetic (re)programming, we developed a novel in-vitro model of CD8 T cell exhaustion. First, we optimized conditions for in-vitro co-culture of gp33-expressing murine brain tumor cells (CT2A-gp33) and TCR transgenic gp33-specific CD8 T cells (P14 cells). We were able to enforce differentiation of anti-tumor CD8 T cells under their persistent TCR stimulation by repeated exposure to the tumor antigen and tumor-derived factors, such as TGFβ1. […] However, with prolonged exposure to the tumor antigen, the effector CD8 T cells progressively lose cytokine production and tumor killing activity (FIGS. 8A, 8B, and 8C).
To assess the impact of TGFβ1 signaling on the progression of CD8 T cells toward dysfunction, we treated co-cultures with TGFβ1 or RepSox (also known as E-616452) (2-(3-(6-Methylpyridine-2-yl)-1H-pyrazol-4-yl)-1,5-naphthyridine) as shown in the formula: […]
RepSox is a potent selective inhibitor of the TGFβ type 1 receptor (ALK5)—for 11 days after effector differentiation was complete (day 6).
We also examined the impact of BMP-2/4 signaling on RepSox-treated P14 CD8 T cells. […] Taken together, our findings indicate that TGFβ1-signaling not only accelerates the development of T cell dysfunction, but also maintains silencing of lymphoid homing markers on CD8 T cells. Importantly, our findings support the feasibility of using this novel in-vitro model as a tractable tool that can guide our in-vivo work by providing first-line mechanistic studies.

human CD8+ T cells [2] = experiment: chronic TCR stimulation of human CBMCs in the presence of TGFβ1; format: cell-based
Method: For “Weak TCR” stimulation, 30 ng/ml of purified monoclonal anti-human CD3 (clone: OKT3; BioLegend) was continuously added onto the seeded CBMCs to provide TCR stimulation plus natural costimulation via CD80/CD86 on Fc-expressing CBMCs that survive in the first few days. For “Strong TCR” stimulation setting, flat-bottom plates were coated with purified monoclonal anti-human CD3 (5 ug/ml) and anti-human CD28 (1 ug/ml) (clone: CD28.2; BioLegend) at 4° C. overnight, then CMBCs were isolated and seeded in complete T cell medium as described above on day 0. On day 7, viable CD8+ T cells were FACS-purified using the Sony MA900 cell sorter. Purified CD8+ T cells were then continuously stimulated in plates coated with anti-CD3 only (5 ug/ml). Media was replenished every 2-3 days, and cells were incubated at 37 C and 5% CO2 throughout the duration of the experiment. Human TGFβ1 (5 ng/ml, Peprotech) was added to the media starting on day 7. Treatment with RepSox (25 μM) and SB4 (10 μM) (MedChemExpress LLC) or vehicle control (DMSO, ThermoFisher) were added to the media starting on day 14 or 21. Vitamin C (100 μM, MedChemExpress LLC) was added to the media starting on day 21. For the acute TCR stimulation condition, anti-CD3 was no longer added to the media starting on day 7. […]

adult CD8+ T cells = experiment: chronic TCR plus TGFβ1 stimulation of adult CD8+ T cells from healthy blood donors; format: cell-based, human
Method: Isolated adult PBMCs were stained on day 0 for cell sorting of naïve CD8+ T cells (viable CD3+ CD8+ CCR7+ CD45RO−) and viable CD3− PBMCs using the Sony MA900 sorter. The cells were seeded into 96-well U-bottom plate (˜5,000 naïve T cells+45,000 CD3− cells per well) on day 0 with 30 ng/ml of purified anti-human CD3, in complete T cell medium as described above. On day 4, the wells were transferred to a 96-well flat-bottom plate coated with anti-human CD3 and CD28 antibodies as described above, and stimulation was continued for an additional three days. On day 7, the cells were returned to culture with continuous stimulation using soluble anti-CD3 (30 ng/ml) or repeated plate-bound anti-CD3 stimulation through day 28. Media was replenished every 2-3 days. Treatments were added to the media as described above for CBMCs experiments.

[3] = test system: SMAD1/5/8 phosphorylation; conditions: cited from earlier work
human CD8 T cells = experiment: treatment of human CD8 T cells with BMP ligands under chronic strong TCR stimulation; format: cell-based; conditions: for expression levels of terminal exhaustion-associated molecules (CD39, CD101, CD103): day 21; for frequencies of IFNγ-producing CD8 T cells: days 14 and 21
Source text: BMP ligands can signal through type 1 (BMPR1, ACVR1) or type 2 receptors (BMPR2, ACVR2), which typically form heterotetramers upon ligand binding. Once heterotetramers are activated by ligands, they phosphorylate SMAD1/5/8 that binds to SMAD4 and translocates to nucleus and bind to target genes.

[4] = adult naïve CD8+ T cells, post-effector exposure

Molecule: O=C1O[C@H]([C@@H](O)CO)C(O)=C1O [vitamin C]
- effector cytokine production (Dysf. CD8+ T cells): further enhanced
- DNA methylation patterns in Dysf. CD8+ T cells (human CD8+ T cells [1]): more pronounced

Molecule: TGFβ1: Human TGFβ1 cytokine (5 ng/ml, Peprotech)
- production of IFNγ and TNFα (P14 CD8 T cells; persistent treatment for 11 days from day 6 of co-culture): accelerated the impairment
- expression of T-bet and Granzyme B (P14 CD8 T cells; persistent treatment from day 6): repressed expression
- effector functions in chronically stimulated T cells (human CD8+ T cells [2]; TGFβ1 started after effector differentiation (day 7-28)): significantly reduced
- survival of chronically stimulated CD8+ T cells (human CD8+ T cells [2]; strong TCR stimulation): supported the survival
- expression of dysfunction-associated markers (adult CD8+ T cells; [4]): increased expression
- function of chronically stimulated adult CD8+ T cells (adult CD8+ T cells; [4]): induced functional impairment
- polyfunctionality (adult CD8+ T cells; adult polyclonal effector memory (CD45RO+ CCR7−) CD8+ T cells): did not impact
- CD103 expression (adult CD8+ T cells; adult polyclonal effector memory CD8+ T cells): significant upregulation

B1: BMP14: BMP ligand (protein, UniProt P43026 382-501, looked up)
Growth/differentiation factor …: APLATRQGKRPSKNLKARCSRKALHVNFKDMGWDDWIIAPLEYEAFHCEGLCEFPLRSHLEPTNHAVIQTLMNSMDPESTPPTCCVPTRLSPISILFIDSANNVVYKQYEDMVVESCGCR
modifications: Growth/differentiation factor 5
notes: BMP ligand
- activation of SMAD1/5/8 phosphorylation [3]: medium or weak

B2: BMP4: natural BMP ligand, bone morphogenic protein 4 (protein, UniProt P12644 293-408, looked up)
Bone morphogenetic protein 4: SPKHHSQRARKKNKNCRRHSLYVDFSDVGWNDWIVAPPGYQAFYCHGDCPFPLADHLNSTNHAIVQTLVNSVNSSIPKACCVPTELSAISMLYLDEYDKVVLKNYQEMVVEGCGCR
modifications: Bone morphogenetic protein 4
- numbers of chronically stimulated human CD8 T cells (human CD8 T cells; chronic strong TCR stimulation): preserved significantly higher numbers
- expression levels of terminal exhaustion-associated molecules (CD39, CD101, CD103) (human CD8 T cells): downregulated
- frequencies of IFNγ-producing CD8 T cells (human CD8 T cells): significantly higher frequencies
- activation of SMAD1/5/8 phosphorylation [3]: strong

B3: BMP10: natural BMP ligand (protein, UniProt O95393 317-424, looked up)
Bone morphogenetic protein 10: NAKGNYCKRTPLYIDFKEIGWDSWIIAPPGYEAYECRGVCNYPLAEHLTPTKHAIIQALVHLKNSQKASKACCVPTKLEPISILYLDKGVVTYKFKYEGMAVSECGCR
- expression levels of terminal exhaustion-associated molecules (CD39, CD101, CD103) (human CD8 T cells): downregulated
- frequencies of IFNγ-producing CD8 T cells (human CD8 T cells): significantly higher frequencies
- activation of SMAD1/5/8 phosphorylation [3]: medium or weak

B4: BMP6: natural BMP ligand (protein, UniProt P22004 375-513, looked up)
Bone morphogenetic protein 6: SASSRRRQQSRNRSTQSQDVARVSSASDYNSSELKTACRKHELYVSFQDLGWQDWIIAPKGYAANYCDGECSFPLNAHMNATNHAIVQTLVHLMNPEYVPKPCCAPTKLNAISVLYFDDNSNVILKKYRNMVVRACGCH
modifications: Bone morphogenetic protein 6
notes: natural BMP ligand
- expression levels of terminal exhaustion-associated molecules (CD39, CD101, CD103) (human CD8 T cells): downregulated
- activation of SMAD1/5/8 phosphorylation [3]: strong

B5: BMP12: BMP ligand (protein, UniProt Q7Z4P5 322-450, looked up)
Growth/differentiation factor …: TALAGTRTAQGSGGGAGRGHGRRGRSRCSRKPLHVDFKELGWDDWIIAPLDYEAYHCEGLCDFPLRSHLEPTNHAIIQTLLNSMAPDAAPASCCVPARLSPISILYIDAANNVVYKQYEDMVVEACGCR
- activation of SMAD1/5/8 phosphorylation [3]: medium or weak

— US20260108496A1, “METHODS FOR REPROGRAMING EXHAUSTED T CELLS AND BOOSTING IMMUNE CHECKPOINT BLOCKADE THERAPY FOR CANCER” (Ohio State Innovation Foundation, priority 2022, published 2026)
